# Measured values: patent US20020197702A1 (IDUN PHARMACEUTICALS, published 2002)
# Ends that are not written are not given here. * marks the point of attachment. Cbz = O=C(OCc1ccccc1)*
# T1: affinity purified membrane derived caspase-3 from 697 cell heavy membranes (human, UniProt P42574 14-175; P42574 176-277, limits assumed)
# T1 chain 1: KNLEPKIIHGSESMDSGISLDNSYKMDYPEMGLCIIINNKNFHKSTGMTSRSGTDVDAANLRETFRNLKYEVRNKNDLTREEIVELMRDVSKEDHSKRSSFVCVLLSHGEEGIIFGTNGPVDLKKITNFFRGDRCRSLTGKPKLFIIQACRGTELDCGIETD
# T1 chain 2: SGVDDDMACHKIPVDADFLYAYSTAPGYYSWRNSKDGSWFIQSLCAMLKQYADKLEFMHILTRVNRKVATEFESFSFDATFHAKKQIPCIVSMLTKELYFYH
# T2: r-caspase-3 (His)6 (human, UniProt P42574 29-175; P42574 176-277)
# T2 sequence 1: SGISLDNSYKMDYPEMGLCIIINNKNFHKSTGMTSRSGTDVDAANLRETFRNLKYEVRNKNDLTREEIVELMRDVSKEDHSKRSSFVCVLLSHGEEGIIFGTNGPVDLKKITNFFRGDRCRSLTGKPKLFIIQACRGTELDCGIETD
# T2 sequence 2: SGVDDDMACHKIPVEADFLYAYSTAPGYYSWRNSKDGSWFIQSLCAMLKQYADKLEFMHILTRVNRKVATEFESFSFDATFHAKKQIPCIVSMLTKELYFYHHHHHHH
# T3: 697-neo HM (caspase-1 treated) caspase (human, UniProt P42574 14-175; P42574 176-277, limits assumed)
# T3 chain 1: T1 chain 1
# T3 chain 2: T1 chain 2
# T4: 697 Bcl-2 HM (caspase-1 treated) caspase (human, UniProt P42574 14-175; P42574 176-277, limits assumed)
# T4 chain 1: T1 chain 1
# T4 chain 2: T1 chain 2
# T5: 697-neo HM (spontaneous activity) caspase (human, UniProt P42574 14-175, limits assumed)
# T5 sequence 1: T1 chain 1
# T5 sequence 2: T1 chain 2
# How the values were obtained:
# Assay in all cases: cell-based or functional assay
# [1] = biological target: T1, affinity purified membrane derived …
# [2] = biological target: T2, r-caspase-3 (His)6
# [3] = biological target: T3, 697-neo HM (caspase-1 treated) caspase
# [4] = biological target: T4, 697 Bcl-2 HM (caspase-1 treated) caspase
# [5] = biological target: MN9D HM (caspase-1 treated) caspase (mouse)
# [6] = biological target: T5, 697-neo HM (spontaneous activity) …
# [7] = biological target: T2, r-caspase-3 (His)6; remark: listed apart in the source
# [8] = biological target: cortical cell HM (caspase-1 treated) caspase (mouse)
"IC50, inhibition of DEVD-AMC cleavage activity [1] [nM]","IC50, inhibition of DEVD-AMC cleavage activity [2] [nM]","IC50, inhibition of DEVD-amc cleavage [3] [nM]","IC50, inhibition of DEVD-amc cleavage [4] [nM]","IC50, inhibition of DEVD-amc cleavage [5] [nM]","IC50, inhibition of DEVD-amc cleavage [6] [nM]","IC50, inhibition of DEVD-amc cleavage [7] [nM]","IC50, inhibition of DEVD-amc cleavage [8] [nM]",Binder
34,32,–,–,–,–,–,–,VEID-aldehyde [VEIDald]
4.7,1.1,4.5,3.6,2.5,3.4,1.5,2.3,DFLD-aldehyde [DFLD-ald]
32,24,–,–,–,–,–,–,Cbz-Glu-Val-Asp-aldehyde (SMILES CC(C)[C@H](NC(=O)[C@H](CCC(=O)O)NC(=O)OCc1ccccc1)C(=O)N[C@H](C=O)CC(=O)O) [ZEVDald]
1,1,–,–,0.72,–,1,1,DEVD-aldehyde [DEVD-ald]
–,–,–,–,> 10000,–,> 10000,> 10000,Ac-YVAD-aldehyde [YVAD-ald]
